Results published in publication doi:10.1101/2023.03.17.533092 (bioRxiv, 2023).

B1: ADAH14 (VHH)
VHH: QVQLQESGGGLVQAGGSLRLSCAASGSYFFHALMGWFRQAPVKEREFVASITAVPGATYYRRCTDSVKGRFTISRDNAKNTVYLQMNSLKPEDTAVYYCALATHSNRHTPITYWGQGTQVTVSS
B2: ADAH15 (VHH)
VHH: QVQLQESGGGLVQAGGSLRLSCAASGTTYLAANMGWFRQAPGKEREFVAAITFFHNPTVYYADSVKGRFTISRDNAKNTVYLQMNSLKPEDTAVYYCAATVLVRDRIHFSHSIGIRYWGQGTQVTVSS

What was measured:
[1] = biological target: SARS-CoV-2 spike glycoprotein (S) (SARS-CoV-2 (Wuhan), UniProt P0DTC2)
[2] = biological target: SARS-CoV-2 Wuhan S RBD, biotinylated (SARS-CoV-2 (Wuhan), UniProt P0DTC2, biotin (biotinylated; site not stated))

Binder	binding result [1]	binding result [2]
B1	binds	binds
B2	binds	binds
